Test [1] addresses FV-short-RQ∗ (FV-short-RQ precleaved at Arg709 with thrombin) (human) (UniProt P12259). The test is described as follows: inhibition of prothrombinase (prothrombin activation assay); 0.1 nM cofactor species, 50 μM PCPS, 1.4 μM prothrombin, 3 μM DAPA, TFPIα 0–500 nM with a twofold excess of anti-K2 antibody to block FXa inhibition, started with 2 nM FXa, assay buffer, 25 °C; Ki from the equation for competitive inhibition.

In test [2] the target is FV-short-QQ (FV-short with Arg709 and Arg1545 replaced with Gln) (human). Described as above.
Test [3] has as its target FV-short (factor V isoform with B-domain residues 756 to 1458 deleted) (human). Described as above.
Test [4] has as its target FV-short-QQ (FV-short with Arg709 and Arg1545 replaced with Gln) (human). The test is described as follows: fluorescence polarisation; competition: unlabeled TFPIα-BR (0–2 μM) or TFPIα (0–1 μM) titrated into 25 nM OG488-TFPIα-BR, 20 nM FV-short-QQ and 50 μM PCPS, assay buffer, 25 °C; stoichiometry of 1 assumed.
The target in test [5] is FV-short-RQ∗ (FV-short-RQ precleaved at Arg709 with thrombin) (human) (UniProt P12259). Kind of test: inhibition of prothrombinase (prothrombin activation assay); 0.1 nM cofactor species, 50 μM PCPS, 1.4 μM prothrombin, 3 μM DAPA, TFPIα 0–500 nM with a twofold excess of anti-K2 antibody to block FXa inhibition, started with 2 nM FXa, assay buffer, 25 °C; Ki from the equation for competitive inhibition. This is another data set of the same source.
FV-short-RQ∗ (FV-short-RQ precleaved at Arg709 with thrombin) (human), sequence (P12259 29-737, chain 1 of 2): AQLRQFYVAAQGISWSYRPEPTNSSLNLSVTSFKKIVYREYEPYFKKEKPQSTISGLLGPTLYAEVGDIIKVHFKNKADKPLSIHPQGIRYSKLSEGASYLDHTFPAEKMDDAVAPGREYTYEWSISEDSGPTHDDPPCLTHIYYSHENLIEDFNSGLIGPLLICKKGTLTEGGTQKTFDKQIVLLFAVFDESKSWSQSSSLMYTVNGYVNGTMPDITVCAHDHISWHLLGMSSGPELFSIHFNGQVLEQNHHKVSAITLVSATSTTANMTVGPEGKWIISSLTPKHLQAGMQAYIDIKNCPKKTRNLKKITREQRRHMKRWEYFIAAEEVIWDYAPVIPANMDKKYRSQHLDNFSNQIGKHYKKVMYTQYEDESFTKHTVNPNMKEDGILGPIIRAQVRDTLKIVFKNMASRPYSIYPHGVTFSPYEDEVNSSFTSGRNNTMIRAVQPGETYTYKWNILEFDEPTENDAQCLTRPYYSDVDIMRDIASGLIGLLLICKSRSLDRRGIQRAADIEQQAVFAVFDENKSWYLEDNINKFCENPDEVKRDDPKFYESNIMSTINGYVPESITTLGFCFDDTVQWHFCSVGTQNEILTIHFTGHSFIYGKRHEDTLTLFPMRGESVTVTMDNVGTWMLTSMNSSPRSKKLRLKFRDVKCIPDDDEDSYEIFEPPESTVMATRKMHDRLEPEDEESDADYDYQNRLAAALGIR
FV-short-RQ∗ (FV-short-RQ precleaved at Arg709 with thrombin) (human), sequence (P12259 other isoform, or with tags, fused parts or gaps, chain 2 of 2): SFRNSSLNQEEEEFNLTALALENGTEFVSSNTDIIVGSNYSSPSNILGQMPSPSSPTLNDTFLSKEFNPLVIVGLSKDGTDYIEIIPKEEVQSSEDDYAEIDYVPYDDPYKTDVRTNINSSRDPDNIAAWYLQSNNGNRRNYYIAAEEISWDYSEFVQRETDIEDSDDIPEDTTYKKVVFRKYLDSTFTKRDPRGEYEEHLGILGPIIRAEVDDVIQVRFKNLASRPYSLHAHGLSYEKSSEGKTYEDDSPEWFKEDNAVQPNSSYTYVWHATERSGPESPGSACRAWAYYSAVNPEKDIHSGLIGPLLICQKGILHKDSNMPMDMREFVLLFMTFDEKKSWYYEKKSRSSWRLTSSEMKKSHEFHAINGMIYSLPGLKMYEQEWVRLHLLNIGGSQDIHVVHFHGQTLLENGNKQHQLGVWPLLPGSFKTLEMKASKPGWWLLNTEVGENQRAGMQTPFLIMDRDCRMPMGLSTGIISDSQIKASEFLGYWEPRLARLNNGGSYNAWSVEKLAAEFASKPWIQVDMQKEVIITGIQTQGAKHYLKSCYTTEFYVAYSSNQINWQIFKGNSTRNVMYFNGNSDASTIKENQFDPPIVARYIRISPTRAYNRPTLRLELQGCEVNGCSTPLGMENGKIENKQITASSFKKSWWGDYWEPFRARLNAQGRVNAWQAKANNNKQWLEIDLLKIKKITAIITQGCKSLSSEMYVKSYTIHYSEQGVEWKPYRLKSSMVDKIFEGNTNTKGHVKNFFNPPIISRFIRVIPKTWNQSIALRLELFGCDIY

For test [6], the target named is FV-short-QR∗ (FV-short-QR precleaved at Arg1545 with RVV-V) (human) (UniProt P12259). The test is described as above.
FV-short-QR∗ (FV-short-QR precleaved at Arg1545 with RVV-V) (human), sequence (P12259 other isoform, or with tags, fused parts or gaps, chain 1 of 2): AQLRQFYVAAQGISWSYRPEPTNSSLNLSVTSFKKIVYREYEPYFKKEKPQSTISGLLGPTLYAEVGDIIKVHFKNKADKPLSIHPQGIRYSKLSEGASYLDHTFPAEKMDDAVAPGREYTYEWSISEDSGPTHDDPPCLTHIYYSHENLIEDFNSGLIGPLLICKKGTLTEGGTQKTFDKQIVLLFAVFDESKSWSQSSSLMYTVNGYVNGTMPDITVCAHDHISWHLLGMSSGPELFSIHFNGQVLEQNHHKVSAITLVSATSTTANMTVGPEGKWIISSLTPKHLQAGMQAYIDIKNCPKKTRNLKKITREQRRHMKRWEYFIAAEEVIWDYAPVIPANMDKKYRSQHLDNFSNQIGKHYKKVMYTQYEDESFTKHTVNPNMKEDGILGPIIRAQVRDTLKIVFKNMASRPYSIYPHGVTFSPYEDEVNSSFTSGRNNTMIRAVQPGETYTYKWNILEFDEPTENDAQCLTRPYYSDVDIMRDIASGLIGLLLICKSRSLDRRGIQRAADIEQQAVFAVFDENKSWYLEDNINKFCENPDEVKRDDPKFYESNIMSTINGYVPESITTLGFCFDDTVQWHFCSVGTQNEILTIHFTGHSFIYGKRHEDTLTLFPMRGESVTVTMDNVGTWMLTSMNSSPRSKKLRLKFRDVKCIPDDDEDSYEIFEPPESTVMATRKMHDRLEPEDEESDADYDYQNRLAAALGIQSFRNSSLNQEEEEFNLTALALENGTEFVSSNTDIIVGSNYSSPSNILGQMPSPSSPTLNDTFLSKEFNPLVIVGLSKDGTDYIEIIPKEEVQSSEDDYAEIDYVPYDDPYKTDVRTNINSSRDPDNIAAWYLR
FV-short-QR∗ (FV-short-QR precleaved at Arg1545 with RVV-V) (human), sequence (P12259 1574-2224, chain 2 of 2): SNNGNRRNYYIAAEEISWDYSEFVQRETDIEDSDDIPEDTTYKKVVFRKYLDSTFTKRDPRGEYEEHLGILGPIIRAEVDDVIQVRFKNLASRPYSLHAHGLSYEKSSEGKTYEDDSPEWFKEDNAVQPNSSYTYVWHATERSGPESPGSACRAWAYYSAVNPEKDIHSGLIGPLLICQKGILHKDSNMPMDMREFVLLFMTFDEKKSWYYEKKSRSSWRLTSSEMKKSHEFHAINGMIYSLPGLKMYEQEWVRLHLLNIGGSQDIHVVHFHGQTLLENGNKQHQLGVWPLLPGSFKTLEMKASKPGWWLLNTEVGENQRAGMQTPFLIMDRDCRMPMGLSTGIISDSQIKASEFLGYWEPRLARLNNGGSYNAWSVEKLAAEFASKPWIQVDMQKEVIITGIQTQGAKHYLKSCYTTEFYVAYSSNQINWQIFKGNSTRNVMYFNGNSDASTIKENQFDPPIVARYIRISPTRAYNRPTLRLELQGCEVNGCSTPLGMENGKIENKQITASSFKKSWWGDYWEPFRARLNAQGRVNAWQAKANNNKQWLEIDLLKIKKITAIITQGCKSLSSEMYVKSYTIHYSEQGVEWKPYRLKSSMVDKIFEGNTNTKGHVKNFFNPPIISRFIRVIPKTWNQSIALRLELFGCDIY
Test [7] has as its target FV-short-QQ (FV-short with Arg709 and Arg1545 replaced with Gln) (human). The test is described as above. This is another data set of the same source.
Test [8] addresses activated factor V (FVa) (human) (UniProt P12259). Described as above.
In test [9] the target is FV-short (factor V isoform with B-domain residues 756 to 1458 deleted) (human). The description is as above. The source holds these as a separate data set.
Another test deals with TFPIα (Homo sapiens) (UniProt P10646). The test is described as follows: SPR. As to conditions: cited from earlier work.
TFPIα (Homo sapiens), sequence (P10646 29-304): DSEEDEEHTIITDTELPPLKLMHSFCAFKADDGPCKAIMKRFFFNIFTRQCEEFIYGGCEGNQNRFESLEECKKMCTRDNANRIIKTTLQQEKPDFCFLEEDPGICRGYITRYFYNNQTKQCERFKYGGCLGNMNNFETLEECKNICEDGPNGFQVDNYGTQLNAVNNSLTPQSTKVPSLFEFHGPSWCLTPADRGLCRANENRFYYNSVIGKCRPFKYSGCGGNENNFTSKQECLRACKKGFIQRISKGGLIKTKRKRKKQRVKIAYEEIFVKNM
In test [10] the target is OG488-TFPIα-BR, TFPIα-BR modified with Oregon Green488 maleimide (human). The test is described as follows: fluorescence polarisation; steady-state anisotropy; FV species (0–100 nM) titrated into 20 nM OG488-TFPIα-BR and 50 μM PCPS, assay buffer (20 mM HEPES, 0.15 M NaCl, 5 mM CaCl2, 0.1% PEG 8000, pH 7.4), 25 °C; fit to independent, noninteracting sites.

Read-outs that look alike come from different tables or passages of the source. A value given as a limit tells only on which side of the number the result lay.

factor V, sequence (P12259 1574-2224): as the sequence (P12259 1574-2224, chain 2 of 2) above
activated factor V (FVa) (human), sequence (P12259 29-737, chain 1 of 2): as the sequence (P12259 29-737, chain 1 of 2) above
activated factor V (FVa) (human), sequence (P12259 1574-2224, chain 2 of 2): as the sequence (P12259 1574-2224, chain 2 of 2) above

For “tissue factor pathway inhibitor alpha (TFPIα), full-length (from UniProt P10646-1 29-304) (natural protein)”, the inhibitory constant (Ki) in test [1] is 0.26 nM; in test [2] it was 0.1 nM; in [3] it was 0.14 nM; in test [5], 0.24 nM; in test [6], greater than 500 nM; in [7] it was 0.11 nM. For the same substance, the inhibition constant (Ki) in [8] was greater than 500 nM; in test [9], 0.23 nM. In addition, in [4], the Kd came to 0.73 nM.

Consider factor V (from UniProt P12259), for which the Kd with TFPIα (Homo sapiens) was 13 nM.

On to “FV-short (factor V isoform with B-domain residues 756 to 1458 deleted) (natural protein)”, for which the stoichiometry N in test [10] amounted to 1.25.

The record behind these values is PMC7948760.
